Where “and” joins values, the source holds several entries; their conditions need not be identical. Equal values may be shown once.
T1: canine FcRn with a poly-His tag / canine B2M heterodimer complex (canine, biotinylated where immobilised on the Biacore chip)
T1 construct: Made in HEK cells, Ni-NTA purified; also called canine FcRn/B2M complex; soluble canine FcRn/B2M complex
T1 chain: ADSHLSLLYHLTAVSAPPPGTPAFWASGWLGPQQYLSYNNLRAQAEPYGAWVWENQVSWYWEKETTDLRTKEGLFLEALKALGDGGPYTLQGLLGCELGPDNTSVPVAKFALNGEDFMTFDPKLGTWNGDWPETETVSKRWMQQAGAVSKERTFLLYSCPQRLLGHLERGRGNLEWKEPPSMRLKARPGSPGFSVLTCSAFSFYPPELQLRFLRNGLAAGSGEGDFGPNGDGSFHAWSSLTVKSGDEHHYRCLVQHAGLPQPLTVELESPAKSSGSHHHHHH
T1 b2m: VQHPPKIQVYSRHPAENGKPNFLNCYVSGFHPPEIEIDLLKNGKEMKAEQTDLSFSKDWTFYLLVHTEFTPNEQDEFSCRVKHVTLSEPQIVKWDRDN


Columns and labels:
[1] = target: T2, human NGF (Sino Biological, Inc.; Catalog No. 11050-HNAC) (human, UniProt P01138 122-241, limits assumed, biotinylated in the Octet assay of Example 3 (sites not given); not biotinylated in the TF1 assay); assay: BLI (Octet); biotinylated human NGF on streptavidin tips, TrkA-Fc 25 ug/mL; 1:1 fit
T2 construct: also called nerve growth factor; biotinylated NGF
T2 sequence (P01138 122-241 limits assumed): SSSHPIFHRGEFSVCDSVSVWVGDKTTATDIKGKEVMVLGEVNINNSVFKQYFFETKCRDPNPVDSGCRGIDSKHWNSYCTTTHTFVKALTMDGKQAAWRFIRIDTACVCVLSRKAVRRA
Method: Binding activity of canine, feline, and equine TrkA ECD v2 and v3 fusion polypeptides prepared in Example 2 (SEQ ID NOs: 16, 17, 19, 20, 22, and 23) to commercially-available human NGF was considered. The binding analysis was performed using a biosensor Octet as follows. Briefly, human NGF (Sino Biological, Inc.; Catalog No. 11050-HNAC) was biotinylated. The free unreacted biotin was removed from biotinylated NGF by extensive dialysis. Biotinylated NGF was captured on streptavidin sensor tips. The association of NGF with TrkA-Fc (25 ug/mL) was monitored for 600 seconds. Dissociation was monitored for 600 seconds. A buffer only blank curve was subtracted to correct for any drift. The data were fit to a 1:1 binding model using ForteBio™ data analysis software to determine the kₒₙ, koff, and the Kd. The buffer for dilutions and all binding steps was: 20 mM phosphate, 150 mM NaCl, pH 7.2.
FIG. 1 and FIG. 2 are sensorgrams showing that canine, feline, and equine TrkA ECD v2 and v3 fusion polypeptides all bind NGF. […] Irrelevant canine and feline IgG-Fc fusion proteins were used as a negative control.

human C1q = human C1q (human, UniProt P02745 23-245; P02746 28-253; P02747 29-245); assay: method not described
human C1q, sequence (P02745 23-245 limits assumed, chain 1 of 3): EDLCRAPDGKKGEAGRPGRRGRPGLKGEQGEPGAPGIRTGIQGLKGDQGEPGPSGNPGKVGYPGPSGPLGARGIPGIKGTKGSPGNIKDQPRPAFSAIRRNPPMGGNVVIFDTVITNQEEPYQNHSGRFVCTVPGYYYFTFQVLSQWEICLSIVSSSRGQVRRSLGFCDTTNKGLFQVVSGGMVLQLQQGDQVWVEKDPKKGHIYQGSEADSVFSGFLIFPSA
human C1q, sequence (P02746 28-253 limits assumed, chain 2 of 3): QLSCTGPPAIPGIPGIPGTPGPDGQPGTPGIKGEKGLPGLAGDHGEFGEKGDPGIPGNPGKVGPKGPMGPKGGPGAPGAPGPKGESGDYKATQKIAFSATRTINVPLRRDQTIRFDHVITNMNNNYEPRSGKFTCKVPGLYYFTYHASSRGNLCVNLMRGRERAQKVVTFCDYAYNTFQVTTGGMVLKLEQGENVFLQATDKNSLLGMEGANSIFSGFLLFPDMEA
human C1q, sequence (P02747 29-245 limits assumed, chain 3 of 3): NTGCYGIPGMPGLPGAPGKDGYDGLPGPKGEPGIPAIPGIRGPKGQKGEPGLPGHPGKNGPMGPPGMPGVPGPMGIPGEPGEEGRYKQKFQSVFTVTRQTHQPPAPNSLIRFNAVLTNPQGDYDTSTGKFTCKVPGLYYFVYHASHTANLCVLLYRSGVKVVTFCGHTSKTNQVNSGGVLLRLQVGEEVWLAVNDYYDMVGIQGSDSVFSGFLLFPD

[2] = target: T1, canine FcRn with a poly-His tag / …; assay: SPR (Biacore T200), pH 6.0; biotinylated canine FcRn/B2M complex immobilised, Fc polypeptide as analyte
From the text: The koff of each of the lead variant canine IgG-B polypeptides was further investigated. Biotinylated canine FcRn/B2M complex was immobilized on a Biacore chip and exposed to each variant canine IgG-B polypeptide as an analyte using a Biacore T200 at pH 6.0.

[3] = target: T1, canine FcRn with a poly-His tag / …; assay: SPR (Biacore T200), steady state, 25 C, pH 6.0; SASA-tagged Fc polypeptide immobilised on CM5 chip, canine FcRn/B2M complex 12.5-200 nM as analyte
Method: Binding analysis was performed using a Biacore T200. Briefly, the lead variant canine IgG-B Fc polypeptides with an SASA tag were each immobilized to a Series S Sensor Chip CM5. […] A running buffer of 10 mM HEPES, 500 mM NaCl, 3 mM EDTA, 0.005% Tween-20, pH 6.0 was used. A buffer only blank curve was used as a control.

Binder	Kd [1]	koff [2]	Kd [3]	other results
Feline TrkA ECD v3-wildtype feline IgG2 Fc (Fc fusion, CHO; also called feline TrkA ECD v3 fusion polypeptide; feline TrkA v3) VSFPASVQLHAAVELHHWCIPFSVDGQPAPSLRWLFNGSVLNETSFIFTEFLEPAANETVRHGCLRLNQPTHVNNGNYTLLAANPSGRAAASVLAAFMDNPSGGGSGGGSPKTASTIESKTGEGPKCPVPEIPGAPSVFIFPPKPKDTLSISRTPEVTCLVVDLGPDDSNVQITWFVDNTEMHTAKTRPREEQFNSTYRVVSVLPILHQDWLKGKEFKCKVNSKSLPSAMERTISKAKGQPHEPQVYVLPPTQEELSENKVSVTCLIKGFHPPDIAVEWEITGQPEPENNYQTTPPQLDSDGTYFLYSRLSVDRSHWQRGNTYTCSVSHEALHSHHTQKSLTQSPGK	~1 nM			
Canine TrkA ECD v3-wildtype canine IgG-B Fc (Fc fusion, CHO; also called canine TrkA ECD v3 fusion polypeptide; canine TrkA v3) VSFPASVQLHEAVELHHWCIPFSVDGQPAPSLRWLFNGSVLNETSFIFTEFLEPVANETVRHGCLRLNQPTHVNNGNYTLLAANPSGRAAAFVMAAFMDNPSGGGSGGGSRPPDCPKCPAPEMLGGPSVFIFPPKPKDTLLIARTPEVTCVVVDLDPEDPEVQISWFVDGKQMQTAKTQPREEQFNGTYRVVSVLPIGHQDWLKGKQFTCKVNNKALPSPIERTISKARGQAHQPSVYVLPPSREELSKNTVSLTCLIKDFFPPDIDVEWQSNGQQEPESKYRTTPPQLDEDGSYFLYSKLSVDKSRWQRGDTFICAVMHEALHNHYTQESLSHSPGK	~1 nM			
Canine TrkA ECD v2-wildtype canine IgG-B Fc (Fc fusion, made in CHO cells; also called canine TrkA ECD v2 fusion polypeptide; canine TrkA v2) VSFPASVQLHEAVELHHWCIPFSVDGQPAPSLRWLFNGSVLNETSFIFTEFLEPVANETVRHGCLRLNQPTHVNNGNYTLLAANPSGRAAAFVMAAFMDNPFEFNPEDPIPVSFSPVDTNSTSGDSGGGSGGGSRPPDCPKCPAPEMLGGPSVFIFPPKPKDTLLIARTPEVTCVVVDLDPEDPEVQISWFVDGKQMQTAKTQPREEQFNGTYRVVSVLPIGHQDWLKGKQFTCKVNNKALPSPIERTISKARGQAHQPSVYVLPPSREELSKNTVSLTCLIKDFFPPDIDVEWQSNGQQEPESKYRTTPPQLDEDGSYFLYSKLSVDKSRWQRGDTFICAVMHEALHNHYTQESLSHSPGK	~1 nM			
Equine TrkA ECD v3-variant equine IgG2 Fc (Protein A+, C1q-, CD16-) (Fc fusion, CHO; also called equine TrkA ECD v3 fusion polypeptide; equine TrkA v3) VSFPASVHLQTAVEQHHWCIPFSVDGQPAPTLRWLFNGSVLNETSFIFTEFLESAANETMRHGCLRLNQPTHVNNGNYTLLATNPYGQDSASVMVAFMDNPPPCVLSAEGVIPIPSVPKPQCPPYTHSKFLGGPSVFIFPPNPKDTLMISRTPVVTCVVVNLSDQYPDVQFSWYVDNTEVHSAITKQREAQFNSTYRVVSVLPIQHQDWLSGKEFKCSVTNVGVPQPISRAISRGKGPSRVPQVYVLPPHPDELAKSKVSVTCLVKDFYPPDISVEWQSNRWPELEGKYSTTPAQLDGDGSYFLYSKLSLETSRWQQVESFTCAVMHEALHNHYTKTDISESLGK	~1 nM			
fusion protein comprising wild-type canine IgG-B Fc (Fc fusion, not shown: large carriers) PAPEMLGGPSVFIFPPKPKDTLLIARTPEVTCVVVDLDPEDPEVQISWFVDGKQMQTAKTQPREEQFNGTYRVVSVLPIGHQDWLKGKQFTCKVNNKALPSPIERTISKARGQAHQPSVYVLPPSREELSKNTVSLTCLIKDFFPPDIDVEWQSNGQQEPESKYRTTPPQLDEDGSYFLYSKLSVDKSRWQRGDTFICAVMHEALHNHYTQESLSHSPGK				binding result (human C1q): binds
wild-type canine IgG-B Fc polypeptide (other, Expressed from plasmid pFASEBA in E. coli with an SASA tag; also called wildtype IgG-B Fc polypeptide; not shown: SASA tag) PAPEMLGGPSVFIFPPKPKDTLLIARTPEVTCVVVDLDPEDPEVQISWFVDGKQMQTAKTQPREEQFNGTYRVVSVLPIGHQDWLKGKQFTCKVNNKALPSPIERTISKARGQAHQPSVYVLPPSREELSKNTVSLTCLIKDFFPPDIDVEWQSNGQQEPESKYRTTPPQLDEDGSYFLYSKLSVDKSRWQRGDTFICAVMHEALHNHYTQESLSHSPGK		0.122 s⁻¹	1250 nM	
variant canine IgG-B Fc polypeptide L(23)F (other, E. coli expressed, with SASA tag; also called F00; not shown: SASA tag) PAPEMLGGPSVFIFPPKPKDTLFIARTPEVTCVVVDLDPEDPEVQISWFVDGKQMQTAKTQPREEQFNGTYRVVSVLPIGHQDWLKGKQFTCKVNNKALPSPIERTISKARGQAHQPSVYVLPPSREELSKNTVSLTCLIKDFFPPDIDVEWQSNGQQEPESKYRTTPPQLDEDGSYFLYSKLSVDKSRWQRGDTFICAVMHEALHNHYTQESLSHSPGK		0.0631 s⁻¹ and 0.0847 s⁻¹	367 nM	
variant canine IgG-B Fc polypeptide L(23)Y (other, E. coli expressed, with SASA tag; also called Y00; not shown: SASA tag) PAPEMLGGPSVFIFPPKPKDTLYIARTPEVTCVVVDLDPEDPEVQISWFVDGKQMQTAKTQPREEQFNGTYRVVSVLPIGHQDWLKGKQFTCKVNNKALPSPIERTISKARGQAHQPSVYVLPPSREELSKNTVSLTCLIKDFFPPDIDVEWQSNGQQEPESKYRTTPPQLDEDGSYFLYSKLSVDKSRWQRGDTFICAVMHEALHNHYTQESLSHSPGK		0.0138 s⁻¹	113 nM	
variant canine IgG-B Fc polypeptide YTE (other, not shown: small tags and cut ends, also called Leu23Tyr Ala25Thr Thr27Glu) PAPEMLGGPSVFIFPPKPKDTLYITREPEVTCVVVDLDPEDPEVQISWFVDGKQMQTAKTQPREEQFNGTYRVVSVLPIGHQDWLKGKQFTCKVNNKALPSPIERTISKARGQAHQPSVYVLPPSREELSKNTVSLTCLIKDFFPPDIDVEWQSNGQQEPESKYRTTPPQLDEDGSYFLYSKLSVDKSRWQRGDTFICAVMHEALHNHYTQESLSHSPGK			86.2 nM	
variant canine IgG-B polypeptide L(23)S (other, not shown: SASA tag) PAPEMLGGPSVFIFPPKPKDTLSIARTPEVTCVVVDLDPEDPEVQISWFVDGKQMQTAKTQPREEQFNGTYRVVSVLPIGHQDWLKGKQFTCKVNNKALPSPIERTISKARGQAHQPSVYVLPPSREELSKNTVSLTCLIKDFFPPDIDVEWQSNGQQEPESKYRTTPPQLDEDGSYFLYSKLSVDKSRWQRGDTFICAVMHEALHNHYTQESLSHSPGK		0.241 s⁻¹		
fusion protein comprising variant canine IgG-B Fc K(93)R (Fc fusion, not shown: large carriers, also called variant canine IgG-B Fc K(93)R fusion protein) PAPEMLGGPSVFIFPPKPKDTLLIARTPEVTCVVVDLDPEDPEVQISWFVDGKQMQTAKTQPREEQFNGTYRVVSVLPIGHQDWLKGKQFTCRVNNKALPSPIERTISKARGQAHQPSVYVLPPSREELSKNTVSLTCLIKDFFPPDIDVEWQSNGQQEPESKYRTTPPQLDEDGSYFLYSKLSVDKSRWQRGDTFICAVMHEALHNHYTQESLSHSPGK				binding result (human C1q): binds
variant canine IgG-B Fc polypeptide L(23)M (other, not shown: SASA tag) PAPEMLGGPSVFIFPPKPKDTLMIARTPEVTCVVVDLDPEDPEVQISWFVDGKQMQTAKTQPREEQFNGTYRVVSVLPIGHQDWLKGKQFTCKVNNKALPSPIERTISKARGQAHQPSVYVLPPSREELSKNTVSLTCLIKDFFPPDIDVEWQSNGQQEPESKYRTTPPQLDEDGSYFLYSKLSVDKSRWQRGDTFICAVMHEALHNHYTQESLSHSPGK		0.126 s⁻¹	406 nM	
Feline TrkA ECD v2-wildtype feline IgG2 Fc (Fc fusion, CHO; also called feline TrkA ECD v2 fusion polypeptide; feline TrkA v2) VSFPASVQLHAAVELHHWCIPFSVDGQPAPSLRWLFNGSVLNETSFIFTEFLEPAANETVRHGCLRLNQPTHVNNGNYTLLAANPSGRAAASVLAAFMDNPFEFNPEDPIPVSFSPVDSNSTSGDSGGGSGGGSPKTASTIESKTGEGPKCPVPEIPGAPSVFIFPPKPKDTLSISRTPEVTCLVVDLGPDDSNVQITWFVDNTEMHTAKTRPREEQFNSTYRVVSVLPILHQDWLKGKEFKCKVNSKSLPSAMERTISKAKGQPHEPQVYVLPPTQEELSENKVSVTCLIKGFHPPDIAVEWEITGQPEPENNYQTTPPQLDSDGTYFLYSRLSVDRSHWQRGNTYTCSVSHEALHSHHTQKSLTQSPGK	~1 nM			

Source: patent publication US20220169740A1 (KINDRED BIOSCIENCES, published 2022)
